Each block holds one substance with its values, some of them ahead of it.
Legend:
[1] = biological target: neonatal Fc receptor (FcRn) on FcRn Affinity Column Gen2 (Roche, Cat #09430857001) (UniProt P55899); experiment: FcRn-HPLC (Roche FcRn Affinity Column Gen2), pH gradient 5.5 to 8.8 over 90 minutes
[2] = biological target: human FcγRI (CD64) extracellular domain (human) (UniProt P12314); experiment: SPR at 25 C (Biacore T200), antibody captured on Protein A chip, FcγR ECD as analyte; average of 3, SD 1.3
Chain of human FcγRI (CD64) extracellular domain (human) (P12314 16-292): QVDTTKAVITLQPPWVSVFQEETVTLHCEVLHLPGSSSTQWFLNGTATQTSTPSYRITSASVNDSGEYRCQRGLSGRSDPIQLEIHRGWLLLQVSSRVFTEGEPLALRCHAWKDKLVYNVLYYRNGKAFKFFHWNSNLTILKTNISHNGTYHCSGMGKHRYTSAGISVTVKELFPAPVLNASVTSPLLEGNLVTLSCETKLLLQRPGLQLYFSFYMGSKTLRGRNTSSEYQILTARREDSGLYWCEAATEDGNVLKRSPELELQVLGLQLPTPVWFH

[3] = biological target: human FcγRIIA_131H (CD32a) extracellular domain (human) (UniProt P12318); experiment: SPR at 25 C (Biacore T200), antibody captured on Protein A chip, FcγR ECD as analyte, steady state; average of 3, SD 0.01
Chain of human FcγRIIA_131H (CD32a) extracellular domain (human) (P12318 34-217): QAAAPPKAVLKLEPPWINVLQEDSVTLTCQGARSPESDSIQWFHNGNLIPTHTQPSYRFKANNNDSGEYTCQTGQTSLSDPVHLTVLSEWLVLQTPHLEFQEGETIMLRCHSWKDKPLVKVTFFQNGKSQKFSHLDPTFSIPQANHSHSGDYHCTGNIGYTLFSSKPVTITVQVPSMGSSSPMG

[4] = biological target: human FcγRIIA_131R (CD32a) extracellular domain (human) (UniProt P12318); experiment: as above
Chain of human FcγRIIA_131R (CD32a) extracellular domain (human) (P12318 34-217 H167R): as the sequence (P12318 34-217) above, with H134R counted along it

[5] = biological target: human FcγRIIIA_158F (CD16a) extracellular domain (human) (UniProt P08637); experiment: SPR at 25 C (Biacore T200), antibody captured on Protein A chip, FcγR ECD as analyte, steady state; average of 3, SD 0.02
Chain of human FcγRIIIA_158F (CD16a) extracellular domain (human) (P08637 17-208): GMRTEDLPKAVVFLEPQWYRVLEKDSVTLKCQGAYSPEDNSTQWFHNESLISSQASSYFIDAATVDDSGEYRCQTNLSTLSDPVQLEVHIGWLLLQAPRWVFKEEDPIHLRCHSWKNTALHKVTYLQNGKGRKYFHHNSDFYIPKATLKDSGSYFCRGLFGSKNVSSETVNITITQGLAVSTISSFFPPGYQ

[6] = biological target: human LEPR, full length, on HEK293-STAT3Luc-hLepR1 cells (Homo sapiens) (UniProt P48357); experiment: cell-based or functional assay
Chain of human LEPR, full length, on HEK293-STAT3Luc-hLepR1 cells (Homo sapiens) (P48357 22-1165 limits assumed): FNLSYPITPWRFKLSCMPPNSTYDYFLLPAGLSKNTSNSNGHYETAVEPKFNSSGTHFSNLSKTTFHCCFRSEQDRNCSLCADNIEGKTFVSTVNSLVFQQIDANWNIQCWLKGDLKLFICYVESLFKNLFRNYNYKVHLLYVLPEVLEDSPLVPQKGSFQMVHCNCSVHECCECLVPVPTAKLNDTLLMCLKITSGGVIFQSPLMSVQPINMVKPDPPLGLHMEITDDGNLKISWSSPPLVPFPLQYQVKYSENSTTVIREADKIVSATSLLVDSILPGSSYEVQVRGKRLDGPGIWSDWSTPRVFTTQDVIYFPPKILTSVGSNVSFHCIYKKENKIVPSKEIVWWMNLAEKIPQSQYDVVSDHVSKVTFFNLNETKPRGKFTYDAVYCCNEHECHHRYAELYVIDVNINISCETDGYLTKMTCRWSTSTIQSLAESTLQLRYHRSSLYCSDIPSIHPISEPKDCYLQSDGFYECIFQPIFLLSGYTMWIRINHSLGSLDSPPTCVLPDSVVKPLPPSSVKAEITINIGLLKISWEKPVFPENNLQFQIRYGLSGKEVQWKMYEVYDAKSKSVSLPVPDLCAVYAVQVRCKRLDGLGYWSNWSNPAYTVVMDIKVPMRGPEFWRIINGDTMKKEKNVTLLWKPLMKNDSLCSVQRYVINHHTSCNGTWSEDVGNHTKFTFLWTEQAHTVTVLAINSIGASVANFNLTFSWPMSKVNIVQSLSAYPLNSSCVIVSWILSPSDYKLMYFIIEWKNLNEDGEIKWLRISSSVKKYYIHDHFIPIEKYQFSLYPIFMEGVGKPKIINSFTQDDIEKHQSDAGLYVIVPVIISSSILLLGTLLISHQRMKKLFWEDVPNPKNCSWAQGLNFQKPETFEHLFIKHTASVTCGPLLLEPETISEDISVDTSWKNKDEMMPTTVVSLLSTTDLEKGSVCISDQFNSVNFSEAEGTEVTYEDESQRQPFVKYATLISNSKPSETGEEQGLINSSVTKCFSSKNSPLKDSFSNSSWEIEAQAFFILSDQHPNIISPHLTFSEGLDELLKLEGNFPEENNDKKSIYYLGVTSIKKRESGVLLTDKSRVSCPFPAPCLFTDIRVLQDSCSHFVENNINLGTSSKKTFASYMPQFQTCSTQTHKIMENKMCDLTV

[7] = biological target: human LEPR, full length, on HEK293-STAT3Luc-hLepR1 cells (Homo sapiens) (UniProt P48357); experiment: flow cytometry on live HEK293-STAT3Luc-hLepR1 cells, AF647 anti-human IgG; average of 4 runs
[8] = biological target: cynomolgus monkey LEPR, full length, on HEK293-STAT3Luc-cmLepR2 cells (Macaca fascicularis); experiment: flow cytometry on live HEK293-STAT3Luc-cmLepR2 cells, AF647 anti-human IgG; average of 4 runs
[9] = biological target: cynomolgus monkey LEPR, full length, on HEK293-STAT3Luc-cmLepR2 cells (Macaca fascicularis); experiment: flow cytometry on live HEK293-STAT3Luc-cmLepR2 cells, AF647 anti-human IgG; average of 4 runs, SD 0, R^2 0.60
[10] = biological target: human LEPR, full length, on HEK293-STAT3Luc-hLepR1 cells (Homo sapiens) (UniProt P48357); experiment: flow cytometry on live HEK293-STAT3Luc-hLepR1 cells, AF647 anti-human IgG; average of 4 runs, SD 331, R^2 0.50
[11] = biological target: neonatal Fc receptor (FcRn) on FcRn Affinity Column Gen2 (Roche, Cat #09430857001) (UniProt P55899); experiment: FcRn-HPLC (Roche FcRn Affinity Column Gen2), peak width at 50% peak height
[12] = biological target: Mutant human LEPR-A409E, on HEK293 STAT3-Luciferase reporter cells (human) (UniProt P48357); experiment: cell-based or functional assay
Chain of Mutant human LEPR-A409E, on HEK293 STAT3-Luciferase reporter cells (human) (P48357 22-1165 A409E limits assumed): as the sequence (P48357 22-1165 limits assumed) above, with A388E counted along it

Maximum RLU, pERK1/2 AlphaLISA (baseline 29762.5) [6]: 27300 RLU
Bottom (gMFI) [7]: 148 gMFI
Top (gMFI) [7]: 293 gMFI
Bottom (gMFI) [8]: 69 gMFI
Top (gMFI) [8]: 131 gMFI
EC50 [9]: 727 nM
EC50 [10]: 409 nM
Substance: IgG Isotype control (antibody)

Top (RLU), STAT3-luciferase reporter (projected by the fitting software) [12]: 259000 RLU
Maximum RLU, pERK1/2 AlphaLISA (baseline 29762.5) [6]: 138000 RLU
Substance: recombinant human leptin protein (SEQ ID NO:27) (from UniProt P41159 22-167) (ligand)

Continued, substance first:

Substance: Briakinumab (antibody)
Retention Time [1]: 88.9 min

Substance: IgG1 positive control (antibody)
Kd [2]: 0.0619 nM
Kd [3]: 520 nM
Kd [4]: 530 nM
Kd [5]: 860 nM

Substance: Ustekinumab (antibody)
Peak Width [11]: 1.9 min
Retention Time [1]: 69.4 min
